In PMC11272584 (Nature Metabolism, 2024):

Assays:
[1] = tested on: GIPR variants (groups); assay: β-arrestin 2 recruitment (BRET); conditions: for In vitro groups (β-arrestin): arr part of the in vitro group; for Beta, Barr: in vitro β-arrestin recruitment per GIPR variant;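 for all read-outs here: BRET readout of β-arrestin 2 recruitment in transiently transfected HEK293 cells expressing WT GIPR or a GIPR variant plus GPCR kinase 2, Rluc8 donor and citrine acceptor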
[2] = tested on: GIPR variants (groups); assay: cAMP accumulation; assay type: cell-based, human; conditions: for In vitro groups (cAMP): cAMP part of the in vitro group; for percentage_camp: cAMP production compared with WT; for Beta, cAMP: in vitro cAMP production per GIPR variant
Protocol: HEK293 (CRL-1573, American Type Culture Collection) and β-arrestin 1/2 knockout cells, generated from HEK293A[48], were used for cAMP measurement, homologues competition binding and β-arrestin 2 recruitment. For the internalization assay, endosomal signalling and basal receptor localization experiments, HEK293A (R70507, Thermo Fisher) cells were used. Both cell lines were cultured at 5% CO2 at 37 °C in Roswell Park Memorial Institute GlutaMAX-I supplemented with 10% fetal bovine serum, 180 units ml^−1 penicillin, and 45 g ml^−1 streptomycin. For the cAMP and binding experiments, cells were transfected with the calcium phosphate precipitation method[49]. The polyethyleneimine (PEI) transfection method was used for the β-arrestin 2 recruitment assays[50], endosomal signalling and basal receptor localization assays, while the lipofectamine transfection method was used for the internalization assay.
(§1) cAMP production was measured with the DiscoverX Hithunter cAMP assay according to the manufacturer’s protocol (DiscoverX). […] On the day of the assay, the cells were washed twice with HEPES-buffered saline (HBS) and incubated with HBS and 1 mM 3-isobutyl-1-methylxanthine for 30 min at 37 °C. […] After the incubation, the assay medium was removed from the plate and the cells were washed with 30 µl PBS and treated with 40 µl enzyme donor–lysis buffer–chemiluminescent reagents and 10 µl cAMP antibodies for 60 min before 40 µl enzyme acceptor solution added. After a 3-h incubation on a shaking table in the dark, the cAMP accumulation was measured based on luminescence with a Perkin Elmer EnVision 2104 Multilabel Microplate Reader.
For cAMP accumulation, the data were fitted as a sigmoidal curve with a Hill slope of 1; for homologous competition binding, the data were fitted as a sigmoidal curve with a Hill slope of −1.

[3] = molecular target: T1, GIPR T168A (Homo sapiens, UniProt P48546, T168A); assay: cAMP accumulation; assay type: cell-based
T1 construct: host or cells: HEK293
T1 sequence (P48546 22-466 T168A): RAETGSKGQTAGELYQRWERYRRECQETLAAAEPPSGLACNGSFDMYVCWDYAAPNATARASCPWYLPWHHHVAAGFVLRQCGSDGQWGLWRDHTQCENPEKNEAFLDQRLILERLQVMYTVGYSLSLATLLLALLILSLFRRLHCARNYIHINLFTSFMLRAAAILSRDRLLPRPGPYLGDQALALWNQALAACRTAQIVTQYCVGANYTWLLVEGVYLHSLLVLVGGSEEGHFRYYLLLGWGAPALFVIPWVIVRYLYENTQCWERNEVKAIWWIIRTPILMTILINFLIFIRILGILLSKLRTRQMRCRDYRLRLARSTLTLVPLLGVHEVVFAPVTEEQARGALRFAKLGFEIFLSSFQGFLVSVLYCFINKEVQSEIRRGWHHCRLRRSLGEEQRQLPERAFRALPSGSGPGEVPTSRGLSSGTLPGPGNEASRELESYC
Protocol: (§2) HEK293 (CRL-1573, American Type Culture Collection) and β-arrestin 1/2 knockout cells, generated from HEK293A[48], were used for cAMP measurement, homologues competition binding and β-arrestin 2 recruitment. […] Both cell lines were cultured at 5% CO2 at 37 °C in Roswell Park Memorial Institute GlutaMAX-I supplemented with 10% fetal bovine serum, 180 units ml^−1 penicillin, and 45 g ml^−1 streptomycin. For the cAMP and binding experiments, cells were transfected with the calcium phosphate precipitation method[49].
as §1

[4] = molecular target: T2, GIPR R190Q (Homo sapiens, UniProt P48546, R190Q); assay: cAMP accumulation; assay type: cell-based
T2 construct: host or cells: HEK293
T2 sequence (P48546 22-466 R190Q): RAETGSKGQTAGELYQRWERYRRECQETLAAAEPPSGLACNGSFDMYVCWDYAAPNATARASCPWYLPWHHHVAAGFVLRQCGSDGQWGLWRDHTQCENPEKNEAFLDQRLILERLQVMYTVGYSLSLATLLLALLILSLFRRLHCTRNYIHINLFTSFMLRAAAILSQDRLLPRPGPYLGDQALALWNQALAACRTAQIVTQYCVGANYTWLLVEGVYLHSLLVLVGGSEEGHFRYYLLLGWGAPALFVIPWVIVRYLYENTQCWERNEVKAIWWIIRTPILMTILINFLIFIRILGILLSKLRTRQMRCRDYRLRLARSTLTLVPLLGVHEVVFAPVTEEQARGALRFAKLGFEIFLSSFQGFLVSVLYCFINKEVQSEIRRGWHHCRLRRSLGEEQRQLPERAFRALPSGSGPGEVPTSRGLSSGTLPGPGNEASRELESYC
Protocol: as §2, §1

[5] = molecular target: T3, GIPR R183Q (Homo sapiens, UniProt P48546, R183Q); assay: cAMP accumulation; assay type: cell-based
T3 construct: host or cells: HEK293
T3 sequence (P48546 22-466 R183Q): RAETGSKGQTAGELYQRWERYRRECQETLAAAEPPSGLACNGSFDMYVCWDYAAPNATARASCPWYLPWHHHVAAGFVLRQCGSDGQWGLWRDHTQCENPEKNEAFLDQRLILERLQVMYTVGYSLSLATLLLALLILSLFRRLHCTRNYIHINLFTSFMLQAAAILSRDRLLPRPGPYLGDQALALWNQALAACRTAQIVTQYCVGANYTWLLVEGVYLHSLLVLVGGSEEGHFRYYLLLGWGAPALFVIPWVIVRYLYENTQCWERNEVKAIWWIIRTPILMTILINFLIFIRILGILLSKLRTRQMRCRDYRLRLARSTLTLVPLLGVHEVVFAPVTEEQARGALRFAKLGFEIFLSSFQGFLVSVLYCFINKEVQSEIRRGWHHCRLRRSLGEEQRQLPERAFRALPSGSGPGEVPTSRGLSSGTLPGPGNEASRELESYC
Protocol: as §2, §1

[6] = molecular target: T4, GIPR P195R (Homo sapiens, UniProt P48546, P195R); assay: cAMP accumulation; assay type: cell-based
T4 construct: host or cells: HEK293
T4 sequence (P48546 22-466 P195R): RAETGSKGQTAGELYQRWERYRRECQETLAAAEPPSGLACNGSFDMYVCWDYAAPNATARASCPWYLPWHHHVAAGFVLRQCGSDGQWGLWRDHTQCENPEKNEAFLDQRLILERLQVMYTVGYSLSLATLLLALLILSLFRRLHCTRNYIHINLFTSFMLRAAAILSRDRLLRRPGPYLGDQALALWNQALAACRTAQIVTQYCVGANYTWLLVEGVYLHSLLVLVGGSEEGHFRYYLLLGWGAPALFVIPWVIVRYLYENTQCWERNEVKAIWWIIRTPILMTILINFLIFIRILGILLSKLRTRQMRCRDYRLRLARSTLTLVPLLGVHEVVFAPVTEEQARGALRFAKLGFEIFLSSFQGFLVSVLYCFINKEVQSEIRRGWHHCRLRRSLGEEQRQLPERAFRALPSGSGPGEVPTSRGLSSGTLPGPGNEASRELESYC
Protocol: as §2, §1

[7] = molecular target: T5, GIPR A185V (Homo sapiens, UniProt P48546, A185V); assay: cAMP accumulation; assay type: cell-based
T5 construct: host or cells: HEK293
T5 sequence (P48546 22-466 A185V): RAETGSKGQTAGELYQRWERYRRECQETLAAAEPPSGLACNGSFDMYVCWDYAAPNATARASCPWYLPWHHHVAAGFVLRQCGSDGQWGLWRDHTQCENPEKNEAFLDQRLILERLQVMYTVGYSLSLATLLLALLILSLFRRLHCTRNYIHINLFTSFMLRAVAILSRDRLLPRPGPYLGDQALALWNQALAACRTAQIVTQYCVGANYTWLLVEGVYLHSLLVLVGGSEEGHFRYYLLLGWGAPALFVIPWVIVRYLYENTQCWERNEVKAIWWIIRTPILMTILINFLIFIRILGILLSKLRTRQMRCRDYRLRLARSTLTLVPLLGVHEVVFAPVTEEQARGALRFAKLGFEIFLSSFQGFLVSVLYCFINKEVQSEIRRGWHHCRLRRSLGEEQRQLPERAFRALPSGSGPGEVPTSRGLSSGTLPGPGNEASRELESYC
Protocol: as §2, §1

B1: T168A (protein)
chain: RAETGSKGQTAGELYQRWERYRRECQETLAAAEPPSGLACNGSFDMYVCWDYAAPNATARASCPWYLPWHHHVAAGFVLRQCGSDGQWGLWRDHTQCENPEKNEAFLDQRLILERLQVMYTVGYSLSLATLLLALLILSLFRRLHCARNYIHINLFTSFMLRAAAILSRDRLLPRPGPYLGDQALALWNQALAACRTAQIVTQYCVGANYTWLLVEGVYLHSLLVLVGGSEEGHFRYYLLLGWGAPALFVIPWVIVRYLYENTQCWERNEVKAIWWIIRTPILMTILINFLIFIRILGILLSKLRTRQMRCRDYRLRLARSTLTLVPLLGVHEVVFAPVTEEQARGALRFAKLGFEIFLSSFQGFLVSVLYCFINKEVQSEIRRGWHHCRLRRSLGEEQRQLPERAFRALPSGSGPGEVPTSRGLSSGTLPGPGNEASRELESYC
- In vitro groups (β-arrestin) [1]: LoF_arr
- Beta, Barr [1]: 0.2206
- In vitro groups (cAMP) [2]: LoF_camp
- percentage_camp [2]: <50% cAMP
- Beta, cAMP [2]: 0.2182
- Efficacy at 100pmol (cAMP) [3]: 0.2182

B2: R190Q (protein)
chain: RAETGSKGQTAGELYQRWERYRRECQETLAAAEPPSGLACNGSFDMYVCWDYAAPNATARASCPWYLPWHHHVAAGFVLRQCGSDGQWGLWRDHTQCENPEKNEAFLDQRLILERLQVMYTVGYSLSLATLLLALLILSLFRRLHCTRNYIHINLFTSFMLRAAAILSQDRLLPRPGPYLGDQALALWNQALAACRTAQIVTQYCVGANYTWLLVEGVYLHSLLVLVGGSEEGHFRYYLLLGWGAPALFVIPWVIVRYLYENTQCWERNEVKAIWWIIRTPILMTILINFLIFIRILGILLSKLRTRQMRCRDYRLRLARSTLTLVPLLGVHEVVFAPVTEEQARGALRFAKLGFEIFLSSFQGFLVSVLYCFINKEVQSEIRRGWHHCRLRRSLGEEQRQLPERAFRALPSGSGPGEVPTSRGLSSGTLPGPGNEASRELESYC
- In vitro groups (β-arrestin) [1]: LoF_arr
- Beta, Barr [1]: 0.1131
- Efficacy at 100pmol (cAMP) [4]: 0.008847
- In vitro groups (cAMP) [2]: LoF_camp
- percentage_camp [2]: <50% cAMP
- Beta, cAMP [2]: 0.008847

B3: R183Q (protein)
chain: RAETGSKGQTAGELYQRWERYRRECQETLAAAEPPSGLACNGSFDMYVCWDYAAPNATARASCPWYLPWHHHVAAGFVLRQCGSDGQWGLWRDHTQCENPEKNEAFLDQRLILERLQVMYTVGYSLSLATLLLALLILSLFRRLHCTRNYIHINLFTSFMLQAAAILSRDRLLPRPGPYLGDQALALWNQALAACRTAQIVTQYCVGANYTWLLVEGVYLHSLLVLVGGSEEGHFRYYLLLGWGAPALFVIPWVIVRYLYENTQCWERNEVKAIWWIIRTPILMTILINFLIFIRILGILLSKLRTRQMRCRDYRLRLARSTLTLVPLLGVHEVVFAPVTEEQARGALRFAKLGFEIFLSSFQGFLVSVLYCFINKEVQSEIRRGWHHCRLRRSLGEEQRQLPERAFRALPSGSGPGEVPTSRGLSSGTLPGPGNEASRELESYC
- In vitro groups (β-arrestin) [1]: LoF_arr
- Beta, Barr [1]: 0.03853
- Efficacy at 100pmol (cAMP) [5]: 0
- In vitro groups (cAMP) [2]: LoF_camp
- percentage_camp [2]: <50% cAMP
- Beta, cAMP [2]: 0

B4: P195R (protein)
chain: RAETGSKGQTAGELYQRWERYRRECQETLAAAEPPSGLACNGSFDMYVCWDYAAPNATARASCPWYLPWHHHVAAGFVLRQCGSDGQWGLWRDHTQCENPEKNEAFLDQRLILERLQVMYTVGYSLSLATLLLALLILSLFRRLHCTRNYIHINLFTSFMLRAAAILSRDRLLRRPGPYLGDQALALWNQALAACRTAQIVTQYCVGANYTWLLVEGVYLHSLLVLVGGSEEGHFRYYLLLGWGAPALFVIPWVIVRYLYENTQCWERNEVKAIWWIIRTPILMTILINFLIFIRILGILLSKLRTRQMRCRDYRLRLARSTLTLVPLLGVHEVVFAPVTEEQARGALRFAKLGFEIFLSSFQGFLVSVLYCFINKEVQSEIRRGWHHCRLRRSLGEEQRQLPERAFRALPSGSGPGEVPTSRGLSSGTLPGPGNEASRELESYC
- In vitro groups (β-arrestin) [1]: WT-like_arr
- Beta, Barr [1]: 0.8561
- In vitro groups (cAMP) [2]: LoF_camp
- percentage_camp [2]: <50% cAMP
- Beta, cAMP [2]: 0.117
- Efficacy at 100pmol (cAMP) [6]: 0.117

B5: A185V (protein)
chain: RAETGSKGQTAGELYQRWERYRRECQETLAAAEPPSGLACNGSFDMYVCWDYAAPNATARASCPWYLPWHHHVAAGFVLRQCGSDGQWGLWRDHTQCENPEKNEAFLDQRLILERLQVMYTVGYSLSLATLLLALLILSLFRRLHCTRNYIHINLFTSFMLRAVAILSRDRLLPRPGPYLGDQALALWNQALAACRTAQIVTQYCVGANYTWLLVEGVYLHSLLVLVGGSEEGHFRYYLLLGWGAPALFVIPWVIVRYLYENTQCWERNEVKAIWWIIRTPILMTILINFLIFIRILGILLSKLRTRQMRCRDYRLRLARSTLTLVPLLGVHEVVFAPVTEEQARGALRFAKLGFEIFLSSFQGFLVSVLYCFINKEVQSEIRRGWHHCRLRRSLGEEQRQLPERAFRALPSGSGPGEVPTSRGLSSGTLPGPGNEASRELESYC
- In vitro groups (β-arrestin) [1]: WT-like_arr
- Beta, Barr [1]: 0.8905
- In vitro groups (cAMP) [2]: LoF_camp
- percentage_camp [2]: <50% cAMP
- Beta, cAMP [2]: 0.2646
- Efficacy at 100pmol (cAMP) [7]: 0.2646
